In patent US6114143, “Anti-HIV monoclonal antibody” (Juridical Foundation The Chemo-Sero-Therapeutic Research …, dated 2000):

B1: humanized C25 antibody (RC25) (antibody, V domains shown)
VH: QVQLVQSGAEVKKPGASVKVSCKASGYTFTNSWIGWFRQAPGQGLEWIGDIYPGGGYTNYNEIFKGKATMTADTSTNTAYMELSSLRSEDTAVYYCSRGIPGYAMDYWGQGTLVTVSS
VL: DIQMTQSPSSLSASVGDRVTMSCKSSQSLLNSGDQKNYLTWYQQKPGKAPKLLIYWASTGESGVPSRFSGSGSGTDFTFTISSLQPEDIATYYCQNDYSYPWTFGQGTKVEIK
B2: monoclonal antibody C25 (antibody, V domains shown)
VH: QVQLQQSGAELVRPGTSVKMFCKAAGYTFTNSWIGWFRQRPGHGLEWIGDIYPGGGYTNYNEIFKGKATLTADTSSSTAYMQLSSLTSEDSAIYYCSRGIPGYAMDYWGQGTSVTVSS
VL: DIVMTQSPSSLTVTAGEKVTMSCKSSQSLLNSGDQKNYLTWYQQKPGQPPKLLIYWASTGESGVPDRFTGSGSETDFTLTISSVQAEDLAVYYCQNDYSYPWTFGGGTKLEIK
B3: chimeric C25 antibody (CC25) (antibody, V domains shown)
VH: B2 VH
VL: B2 VL

Tests used:
gp120 of HIV-MN strain = gp120 of HIV-MN strain (HIV strain MN, UniProt P05877); assay: cell-based or functional assay
[1] = target: synthetic peptide SP-30 (5 repeats of GPGR); assay: EIA, peptide immobilized on plate (FIG. 4)
[2] = target: synthetic PND peptide SP-20 (HIV strain NI63-2) (HIV strain NI63-2); assay: EIA, peptide immobilized on plate (FIG. 4)
[3] = target: synthetic PND peptide SP-9 (HIV strain NI23) (HIV strain NI23); assay: EIA, peptide immobilized on plate (FIG. 4)
[4] = target: T1, synthetic PND peptide SP-1 (HIV strain MN) (HIV strain MN); assay: EIA, peptide immobilized on plate (FIG. 4)
T1 peptide: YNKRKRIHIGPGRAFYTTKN

[5] = target: synthetic PND peptide SP-12 (HIV strain NI53) (HIV strain NI53); assay: EIA, peptide immobilized on plate (FIG. 4)
[6] = target: synthetic PND peptide SP-11 (HIV strain NI54-2) (HIV strain NI54-2); assay: EIA, peptide immobilized on plate (FIG. 4)
[7] = target: synthetic PND peptide SP-6 (HIV strain NI16-1) (HIV strain NI16-1); assay: EIA, peptide immobilized on plate (FIG. 4)
[8] = target: T2, hexapeptide Ile-Gly-Pro-Gly-Arg-Ala (HIV strain MN); assay: EIA with overlapped peptides on a solid phase (FIG. 7)
T2 peptide: IGPGRA

[9] = target: T3, hexapeptide Gly-Pro-Gly-Arg-Ala-Phe (HIV strain MN); assay: as above
T3 peptide: GPGRAF

[10] = target: T4, decapeptide IHIGPGRAFY derived from HIV-MN (HIV strain MN); assay: EIA, peptide synthesized on a polyethylene rod (FIG. 6)
T4 peptide: IHIGPGRAFY

[11] = target: decapeptide […] derived from NI53 (HIV strain NI53); assay: as above

Row | Binder | minimum effective concentration inhibiting viral infection by 100% (gp120 of HIV-MN strain) [µg/mL] | binding result [1] | binding result [2] | binding result [3] | binding result [4] | binding result [5] | binding result [6] | binding result [7] | binding result [8] | binding result [9] | binding result [10] | binding result [11]
1 | B1 | 1 | – | – | – | – | – | – | – | – | – | – | –
2 | B2 | 1 | binds | binds | binds | binds | binds | binds | binds | binds | binds | binds | binds
3 | B3 | 1 | – | – | – | – | – | – | – | – | – | – | –
